Source: publication PMC4416881, “Regulation of Active DNA Demethylation by a Methyl-CpG-Binding Domain Protein in Arabidopsis thaliana” (PLoS Genetics, 2015)

T1: His-IDL1 (Arabidopsis thaliana, UniProt Q9SYQ0 1-463)
T1 construct: IDL1, Arabidopsis thaliana, AT1G20870; detected with antibodies against the His6 tag; also called His-tagged IDL1; source: E. coli, purified; not shown: His6, N-terminal, kept
T1 sequence (looked up): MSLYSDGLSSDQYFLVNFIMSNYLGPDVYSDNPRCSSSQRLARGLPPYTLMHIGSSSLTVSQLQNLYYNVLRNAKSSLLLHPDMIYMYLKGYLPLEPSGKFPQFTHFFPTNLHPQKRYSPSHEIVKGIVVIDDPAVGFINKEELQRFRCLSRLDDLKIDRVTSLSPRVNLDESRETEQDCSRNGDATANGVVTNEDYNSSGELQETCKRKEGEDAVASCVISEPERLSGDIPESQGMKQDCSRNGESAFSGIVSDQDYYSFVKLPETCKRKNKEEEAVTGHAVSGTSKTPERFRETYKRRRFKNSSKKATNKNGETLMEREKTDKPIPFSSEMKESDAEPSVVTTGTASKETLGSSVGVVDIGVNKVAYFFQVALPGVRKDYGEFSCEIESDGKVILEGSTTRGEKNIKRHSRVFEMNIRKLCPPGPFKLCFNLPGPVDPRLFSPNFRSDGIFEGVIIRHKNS

T2: MBP-IDL1 (Arabidopsis thaliana, UniProt Q9SYQ0 1-463)
T2 construct: IDL1, Arabidopsis thaliana, AT1G20870; source: E. coli, fixed to an amylose resin; not shown: MBP, N-terminal, kept
T2 sequence (looked up): T1 sequence (looked up)

B1: MBP-IDM2 (natural protein, Arabidopsis thaliana, UniProt Q8RWL4 1-349, looked up)
chain: MSDTMPEIVSPLVAENSQEQEESVLISLDIEEDKLFLLHFIIGTYFGPDLRKQHHRPKQSAFQIQALKNVVVDELSGSLMKRAELERVYYHIIRNVDPSLVMKPKKLREYFNAKRNDSNRDYPLFVDLFPRKLHPETHVRHKFKFIRSIVFINDPDTSCMREECVARFKRLTGLDSFALSLSVDVTKSNGVVAANEVKVEIDESVEPVKEDNAGTCTSGEESDVAAKPEVKSEAHGGLMVGLMDIGECDDAYLFRVSLPGVKRDERYFSCEVEDNGKVLVRGVTTTGGKRVKRYSHVFEMQTRSLCPPGNFSVSFRLPGPVHPHEFSGNFGTDGILEGVVMKNLQKQTV
notes: IDM2, Arabidopsis thaliana, AT1G54840; source: E. coli, fixed to an amylose resin; not shown: MBP, N-terminal, kept
B2: His-MBD7 (natural protein, Arabidopsis thaliana, UniProt Q9FJF4 1-306, looked up)
chain: MQTRSSSSPSANHRRETQLQIADPTSFCGKIMPGWTVVNRPRSSNNGVVDTYFIEPGTGRQFSSLEAIHRHLAGEVNDRRLTRAGSFFQDKTRVYEGSRTKQDHCGVEYASKGFRLPRGWSVEEVPRKNSHYIDKYYVERKTGKRFRSLVSVERYLRESRNSIEQQLRVLQNRRGHSKDFRLPDGWIVEEKPRRSSSHIDRSYIEPGTGNKFRSMAAVERYLISVGNITLDSVSMVHSERLPLLMNRNGIRFQSEVIDPNPPKKVKWVLTGSGGNMFTANVRGSNVSSLVKHTWSEAFVSLIEDRS
notes: MBD7, Arabidopsis thaliana, AT5G59800; detected with antibodies against the His6 tag; also called His-tagged MBD7; source: E. coli, purified; not shown: His6, N-terminal, kept

What was measured:
Test in all cases: pull-down; MBP fusion from E. coli fixed to amylose resin, incubated with His-tagged protein purified from E. coli; immunoblot against His6 tag
Details in all cases: both partners purified
His-IDL1 = target: T1, His-IDL1
MBP-IDL1 = target: T2, MBP-IDL1
MBP-IDM2 = target: B1

Row | Binder | binding result (His-IDL1) | binding result (MBP-IDL1) | binding result (MBP-IDM2)
1 | B1 | binds |  | 
2 | B2 |  | binds | binds
